# Patent US10450368
# Columns and labels:
# [1] = molecular target: HIV-1 CH505 transmitted/founder gp120 Env (HIV-1); assay: competition ELISA, blocking of CH106 binding to gp120
# [2] = molecular target: HIV-1 CH505 transmitted/founder gp120 Env (HIV-1); assay: competition ELISA, blocking of sCD4 binding to gp120
# Sm (Smith antigen) [3] = assay: AtheNA, Ab 6.25 ug/ml
# RNP (ribonucleoprotein) [4] = assay: AtheNA, Ab 6.25 ug/ml
# Scl-70 [5] = molecular target: Scl-70 (UniProt P11387); assay: AtheNA, Ab 6.25 ug/ml
# Chain of Scl-70 (P11387 whole entry): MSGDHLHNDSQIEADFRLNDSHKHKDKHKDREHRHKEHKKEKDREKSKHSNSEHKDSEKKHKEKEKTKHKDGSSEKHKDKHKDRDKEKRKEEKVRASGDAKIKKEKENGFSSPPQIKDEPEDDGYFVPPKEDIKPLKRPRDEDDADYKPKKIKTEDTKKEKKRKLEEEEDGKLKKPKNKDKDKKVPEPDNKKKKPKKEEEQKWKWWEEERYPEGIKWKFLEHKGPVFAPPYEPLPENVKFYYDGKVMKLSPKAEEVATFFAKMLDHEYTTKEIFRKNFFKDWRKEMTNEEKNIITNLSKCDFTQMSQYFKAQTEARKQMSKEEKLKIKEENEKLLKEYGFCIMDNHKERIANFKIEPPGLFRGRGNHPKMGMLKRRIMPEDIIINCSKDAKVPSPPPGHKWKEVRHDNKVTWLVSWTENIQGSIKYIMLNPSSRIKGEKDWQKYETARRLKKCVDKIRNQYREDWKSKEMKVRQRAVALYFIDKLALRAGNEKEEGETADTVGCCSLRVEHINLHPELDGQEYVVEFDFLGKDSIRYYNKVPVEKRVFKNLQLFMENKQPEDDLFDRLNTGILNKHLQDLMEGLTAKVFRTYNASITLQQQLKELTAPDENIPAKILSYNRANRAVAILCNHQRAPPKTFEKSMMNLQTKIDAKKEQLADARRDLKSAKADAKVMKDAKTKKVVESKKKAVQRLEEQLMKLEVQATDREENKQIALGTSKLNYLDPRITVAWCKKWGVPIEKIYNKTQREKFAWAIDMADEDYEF
# SSA [6] = assay: AtheNA, Ab 6.25 ug/ml
# Jo-1 [7] = molecular target: Jo-1 (UniProt P12081); assay: AtheNA, Ab 6.25 ug/ml
# Chain of Jo-1 (P12081 whole entry): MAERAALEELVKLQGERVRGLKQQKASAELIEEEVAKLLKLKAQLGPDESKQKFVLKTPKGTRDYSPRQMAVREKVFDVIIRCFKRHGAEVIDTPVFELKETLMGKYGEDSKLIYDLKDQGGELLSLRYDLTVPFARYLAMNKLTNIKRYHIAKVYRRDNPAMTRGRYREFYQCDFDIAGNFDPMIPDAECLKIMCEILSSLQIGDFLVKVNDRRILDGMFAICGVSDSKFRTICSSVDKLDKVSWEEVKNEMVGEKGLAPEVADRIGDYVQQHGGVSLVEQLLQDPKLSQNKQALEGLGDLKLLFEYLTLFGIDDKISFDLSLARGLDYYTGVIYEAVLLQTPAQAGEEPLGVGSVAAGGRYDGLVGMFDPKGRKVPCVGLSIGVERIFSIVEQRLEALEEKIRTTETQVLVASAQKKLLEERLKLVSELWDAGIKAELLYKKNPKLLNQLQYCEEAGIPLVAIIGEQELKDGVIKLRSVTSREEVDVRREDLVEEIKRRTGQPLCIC
# Histones [8] = assay: AtheNA, Ab 6.25 ug/ml
# SSB [9] = molecular target: SSB (UniProt P05455); assay: AtheNA, Ab 6.25 ug/ml
# Chain of SSB (P05455 whole entry): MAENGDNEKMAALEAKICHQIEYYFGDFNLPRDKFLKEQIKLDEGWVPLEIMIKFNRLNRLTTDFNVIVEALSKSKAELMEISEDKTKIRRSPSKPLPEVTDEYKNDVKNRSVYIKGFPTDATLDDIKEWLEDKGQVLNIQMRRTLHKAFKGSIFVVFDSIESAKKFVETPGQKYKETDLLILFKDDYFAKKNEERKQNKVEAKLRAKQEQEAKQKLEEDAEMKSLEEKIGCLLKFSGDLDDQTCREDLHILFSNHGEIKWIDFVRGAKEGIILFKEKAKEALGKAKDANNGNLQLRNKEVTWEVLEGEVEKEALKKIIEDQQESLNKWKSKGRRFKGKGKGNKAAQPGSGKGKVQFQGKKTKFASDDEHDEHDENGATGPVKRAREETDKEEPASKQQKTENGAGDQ
# Centromere B [10] = molecular target: Centromere B (UniProt P07199); assay: AtheNA, Ab 6.25 ug/ml
# Chain of Centromere B (P07199 whole entry): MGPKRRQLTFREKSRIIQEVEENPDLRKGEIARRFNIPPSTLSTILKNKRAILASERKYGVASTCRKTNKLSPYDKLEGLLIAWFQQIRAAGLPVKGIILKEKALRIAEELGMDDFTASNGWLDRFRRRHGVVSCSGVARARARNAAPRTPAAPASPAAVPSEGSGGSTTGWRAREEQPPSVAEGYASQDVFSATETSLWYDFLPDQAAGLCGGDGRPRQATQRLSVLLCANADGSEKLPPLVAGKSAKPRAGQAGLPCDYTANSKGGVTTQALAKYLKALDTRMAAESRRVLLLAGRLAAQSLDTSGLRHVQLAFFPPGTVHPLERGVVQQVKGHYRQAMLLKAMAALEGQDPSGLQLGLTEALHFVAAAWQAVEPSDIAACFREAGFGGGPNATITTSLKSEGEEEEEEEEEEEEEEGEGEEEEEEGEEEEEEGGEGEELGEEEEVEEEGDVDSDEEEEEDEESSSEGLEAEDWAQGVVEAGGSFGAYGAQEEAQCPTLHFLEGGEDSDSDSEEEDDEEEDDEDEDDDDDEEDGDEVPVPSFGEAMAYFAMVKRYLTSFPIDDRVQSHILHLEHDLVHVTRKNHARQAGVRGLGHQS
# Sm (Smith antigen) [11] = assay: AtheNA, Ab 25 ug/ml
# RNP (ribonucleoprotein) [12] = assay: AtheNA, Ab 25 ug/ml
# Scl-70 [13] = molecular target: Scl-70 (UniProt P11387); assay: AtheNA, Ab 25 ug/ml
# SSA [14] = assay: AtheNA, Ab 25 ug/ml
# Jo-1 [15] = molecular target: Jo-1 (UniProt P12081); assay: AtheNA, Ab 25 ug/ml
# Histones [16] = assay: AtheNA, Ab 25 ug/ml
# SSB [17] = molecular target: SSB (UniProt P05455); assay: AtheNA, Ab 25 ug/ml
# Centromere B [18] = molecular target: Centromere B (UniProt P07199); assay: AtheNA, Ab 25 ug/ml
# Sm (Smith antigen) [19] = assay: AtheNA, Ab 12.5 ug/ml
# RNP (ribonucleoprotein) [20] = assay: AtheNA, Ab 12.5 ug/ml
# Scl-70 [21] = molecular target: Scl-70 (UniProt P11387); assay: AtheNA, Ab 12.5 ug/ml
# SSA [22] = assay: AtheNA, Ab 12.5 ug/ml
# Jo-1 [23] = molecular target: Jo-1 (UniProt P12081); assay: AtheNA, Ab 12.5 ug/ml
# Histones [24] = assay: AtheNA, Ab 12.5 ug/ml
# SSB [25] = molecular target: SSB (UniProt P05455); assay: AtheNA, Ab 12.5 ug/ml
# Centromere B [26] = molecular target: Centromere B (UniProt P07199); assay: AtheNA, Ab 12.5 ug/ml
# CH505.M7D8gp120/293F = assay: ELISA
# CH505w030.20D8gp120/293F = assay: ELISA
# CH505.M11D8gp120/293F = assay: ELISA
# CH505.M5D8gp120293F = assay: ELISA
# CH505.M9D8gp120/293F = assay: ELISA
# [27] = molecular target: CH505.TF mutant gp120 M8 (HIV-1); assay: ELISA
# CH505.M19D8gp120 = assay: ELISA
# CH505.w30.12D8gp120 = assay: ELISA
# CH0505_CON D7gp120/293i = assay: ELISA
# CH505w136.B18D8gp120 = assay: ELISA
# CH505w020.14D8gp120 = assay: ELISA
# CH505.M10D8gp120 = assay: ELISA
# [28] = molecular target: CH505.TF mutant gp120 M20 (HIV-1); assay: ELISA
# CH505.M21D8gp120/293F = assay: ELISA
# [29] = molecular target: CH505.TF mutant gp120 M6 (HIV-1); assay: ELISA
# Sm (Smith antigen) [30] = assay: AtheNA, Ab 50 ug/ml
# SSA [31] = assay: AtheNA, Ab 50 ug/ml
# Jo-1 [32] = molecular target: Jo-1 (UniProt P12081); assay: AtheNA, Ab 50 ug/ml
# Histones [33] = assay: AtheNA, Ab 50 ug/ml
# SSB [34] = molecular target: SSB (UniProt P05455); assay: AtheNA, Ab 50 ug/ml
# CH505.TF gp120 delta371I = assay: direct-binding ELISA (OD450), panel 'CH505.TF gp120 delta371I'
# RSC3 delta371I = assay: ELISA
# [35] = molecular target: HIV-1 Env resurface core protein 3 (RSC3); assay: direct-binding ELISA (OD450), panel 'RSC3'
# [36] = molecular target: CH505.TF mutant gp120 M8 (HIV-1); assay: direct-binding ELISA (OD450), panel 'CH505.TF gp120 M8'
# Sm (Smith antigen) [37] = assay: AtheNA, Ab 25 ug/ml; remark: listed apart in the source
# RNP (ribonucleoprotein) [38] = assay: AtheNA, Ab 25 ug/ml; remark: listed apart in the source
# Scl-70 [39] = molecular target: Scl-70 (UniProt P11387); assay: AtheNA, Ab 25 ug/ml; remark: listed apart in the source
# SSA [40] = assay: AtheNA, Ab 25 ug/ml; remark: listed apart in the source
# Jo-1 [41] = molecular target: Jo-1 (UniProt P12081); assay: AtheNA, Ab 25 ug/ml; remark: listed apart in the source
# Histones [42] = assay: AtheNA, Ab 25 ug/ml; remark: listed apart in the source
# SSB [43] = molecular target: SSB (UniProt P05455); assay: AtheNA, Ab 25 ug/ml; remark: listed apart in the source
# Centromere B [44] = molecular target: Centromere B (UniProt P07199); assay: AtheNA, Ab 25 ug/ml; remark: listed apart in the source
# Sm (Smith antigen) [45] = assay: AtheNA, Ab 50 ug/ml; remark: listed apart in the source
# RNP (ribonucleoprotein) [46] = assay: AtheNA, Ab 50 ug/ml
# Scl-70 [47] = molecular target: Scl-70 (UniProt P11387); assay: AtheNA, Ab 50 ug/ml
# SSA [48] = assay: AtheNA, Ab 50 ug/ml; remark: listed apart in the source
# Jo-1 [49] = molecular target: Jo-1 (UniProt P12081); assay: AtheNA, Ab 50 ug/ml; remark: listed apart in the source
# Histones [50] = assay: AtheNA, Ab 50 ug/ml; remark: listed apart in the source
# SSB [51] = molecular target: SSB (UniProt P05455); assay: AtheNA, Ab 50 ug/ml; remark: listed apart in the source
# Centromere B [52] = molecular target: Centromere B (UniProt P07199); assay: AtheNA, Ab 50 ug/ml
# RNP (ribonucleoprotein) [53] = assay: AtheNA, Ab 50 ug/ml; remark: listed apart in the source
# Centromere B [54] = molecular target: Centromere B (UniProt P07199); assay: AtheNA, Ab 50 ug/ml; remark: listed apart in the source
# [55] = molecular target: BG505 SOSIP.664 gp140 trimer (HIV-1); assay: negative stain EM
substance,measurement,setting,value
CH235 IA1 (antibody),IC50,[1],82.4 µg/mL
same,IC50,[2],> 100 µg/mL
same,AtheNA signal (relative luminescence units),Sm (Smith antigen) [3],77
same,AtheNA signal (relative luminescence units),RNP (ribonucleoprotein) [4],46
same,AtheNA signal (relative luminescence units),Scl-70 [5],31
same,AtheNA signal (relative luminescence units),SSA [6],175
same,AtheNA signal (relative luminescence units),Jo-1 [7],129
same,AtheNA signal (relative luminescence units),Histones [8],118
same,AtheNA signal (relative luminescence units),SSB [9],117
same,AtheNA signal (relative luminescence units),Centromere B [10],87
same,AtheNA signal (relative luminescence units),Sm (Smith antigen) [11],110
same,AtheNA signal (relative luminescence units),RNP (ribonucleoprotein) [12],67
same,AtheNA signal (relative luminescence units),Scl-70 [13],52
same,AtheNA signal (relative luminescence units),SSA [14],150
same,AtheNA signal (relative luminescence units),Jo-1 [15],171
same,AtheNA signal (relative luminescence units),Histones [16],99
same,AtheNA signal (relative luminescence units),SSB [17],197
same,AtheNA signal (relative luminescence units),Centromere B [18],80
same,AtheNA signal (relative luminescence units),Sm (Smith antigen) [19],77
same,AtheNA signal (relative luminescence units),RNP (ribonucleoprotein) [20],56
same,AtheNA signal (relative luminescence units),Scl-70 [21],40
same,AtheNA signal (relative luminescence units),SSA [22],151
same,AtheNA signal (relative luminescence units),Jo-1 [23],152
same,AtheNA signal (relative luminescence units),Histones [24],100
same,AtheNA signal (relative luminescence units),SSB [25],167
same,AtheNA signal (relative luminescence units),Centromere B [26],81
same,LogAUC,CH505.M7D8gp120/293F,0
same,LogAUC,CH505w030.20D8gp120/293F,4.82
same,LogAUC,CH505.M11D8gp120/293F,2.85
same,LogAUC,CH505.M5D8gp120293F,9.18
same,LogAUC,CH505.M9D8gp120/293F,0
same,LogAUC,[27],0
same,LogAUC,CH505.M19D8gp120,2.78
same,LogAUC,CH505.w30.12D8gp120,2.4
same,LogAUC,CH0505_CON D7gp120/293i,6.89
same,LogAUC,CH505w136.B18D8gp120,2.36
same,LogAUC,CH505w020.14D8gp120,6.52
same,LogAUC,CH505.M10D8gp120,7.08
same,LogAUC,[28],0
same,LogAUC,CH505.M21D8gp120/293F,0
same,LogAUC,[29],6.1
same,AtheNA signal (relative luminescence units),Sm (Smith antigen) [30],104
same,AtheNA signal (relative luminescence units),SSA [31],149
same,AtheNA signal (relative luminescence units),Jo-1 [32],176
same,AtheNA signal (relative luminescence units),Histones [33],100
same,AtheNA signal (relative luminescence units),SSB [34],217
2G12 (antibody),EC50 (read off the curve),CH505.TF gp120 delta371I,0.2 µg/mL
same,EC50 (read off the curve),RSC3 delta371I,0.01 µg/mL
same,EC50 (read off the curve),[35],0.01 µg/mL
same,EC50 (read off the curve),[36],0.2 µg/mL
DH270IA1 (antibody),AtheNA signal,Sm (Smith antigen) [3],3
same,AtheNA signal,RNP (ribonucleoprotein) [4],2
same,AtheNA signal,Scl-70 [5],2
same,AtheNA signal,SSA [6],5
same,AtheNA signal,Jo-1 [7],5
same,AtheNA signal,Histones [8],2
same,AtheNA signal,SSB [9],1
same,AtheNA signal,Centromere B [10],2
same,AtheNA signal,Sm (Smith antigen) [37],5
same,AtheNA signal,RNP (ribonucleoprotein) [38],2
same,AtheNA signal,Scl-70 [39],1
same,AtheNA signal,SSA [40],3
same,AtheNA signal,Jo-1 [41],3
same,AtheNA signal,Histones [42],4
same,AtheNA signal,SSB [43],6
same,AtheNA signal,Centromere B [44],5
same,AtheNA signal,Sm (Smith antigen) [19],5
same,AtheNA signal,RNP (ribonucleoprotein) [20],3
same,AtheNA signal,Scl-70 [21],2
same,AtheNA signal,SSA [22],3
same,AtheNA signal,Jo-1 [23],6
same,AtheNA signal,Histones [24],4
same,AtheNA signal,SSB [25],6
same,AtheNA signal,Centromere B [26],3
same,AtheNA signal,Sm (Smith antigen) [45],5
same,AtheNA signal,RNP (ribonucleoprotein) [46],2
same,AtheNA signal,Scl-70 [47],4
same,AtheNA signal,SSA [48],5
same,AtheNA signal,Jo-1 [49],5
same,AtheNA signal,Histones [50],9
same,AtheNA signal,SSB [51],6
same,AtheNA signal,Centromere B [52],10
CH235 IA2 (antibody),AtheNA signal (relative luminescence units),Sm (Smith antigen) [3],204
same,AtheNA signal (relative luminescence units),RNP (ribonucleoprotein) [4],66
same,AtheNA signal (relative luminescence units),Scl-70 [5],28
same,AtheNA signal (relative luminescence units),SSA [6],18
same,AtheNA signal (relative luminescence units),Jo-1 [7],12
same,AtheNA signal (relative luminescence units),Histones [8],207
same,AtheNA signal (relative luminescence units),SSB [9],15
same,AtheNA signal (relative luminescence units),Centromere B [10],183
same,AtheNA signal (relative luminescence units),Sm (Smith antigen) [11],256
same,AtheNA signal (relative luminescence units),RNP (ribonucleoprotein) [12],93
same,AtheNA signal (relative luminescence units),Scl-70 [13],49
same,AtheNA signal (relative luminescence units),SSA [14],43
same,AtheNA signal (relative luminescence units),Jo-1 [15],26
same,AtheNA signal (relative luminescence units),Histones [16],302
same,AtheNA signal (relative luminescence units),SSB [17],36
same,AtheNA signal (relative luminescence units),Centromere B [18],228
same,AtheNA signal (relative luminescence units),Sm (Smith antigen) [19],279
same,AtheNA signal (relative luminescence units),RNP (ribonucleoprotein) [20],85
same,AtheNA signal (relative luminescence units),Scl-70 [21],44
same,AtheNA signal (relative luminescence units),SSA [22],34
same,AtheNA signal (relative luminescence units),Jo-1 [23],20
same,AtheNA signal (relative luminescence units),Histones [24],287
same,AtheNA signal (relative luminescence units),SSB [25],31
same,AtheNA signal (relative luminescence units),Centromere B [26],225
same,LogAUC,CH505.M7D8gp120/293F,0
same,LogAUC,CH505w030.20D8gp120/293F,0.53
same,LogAUC,CH505.M11D8gp120/293F,0
same,LogAUC,CH505.M5D8gp120293F,6.95
same,LogAUC,CH505.M9D8gp120/293F,0
same,LogAUC,[27],0
same,LogAUC,CH505.M19D8gp120,0
same,LogAUC,CH505.w30.12D8gp120,0
same,LogAUC,CH0505_CON D7gp120/293i,4.77
same,LogAUC,CH505w136.B18D8gp120,0
same,LogAUC,CH505w020.14D8gp120,1.22
same,LogAUC,CH505.M10D8gp120,0.43
same,LogAUC,[28],0
same,LogAUC,CH505.M21D8gp120/293F,0
same,LogAUC,[29],1.22
same,AtheNA signal (relative luminescence units),Sm (Smith antigen) [30],259
same,AtheNA signal (relative luminescence units),RNP (ribonucleoprotein) [53],101
same,AtheNA signal (relative luminescence units),Histones [33],371
same,AtheNA signal (relative luminescence units),Centromere B [54],256
CH103 Fab,stoichiometry (Fabs per trimer) (Fabs per trimer),[55],3
